{"source": "paper PMC4326362", "about": "“Non-canonical regulation of phosphatidylinositol 3-kinase gamma isoform activity in retinal rod photoreceptor cells” (Cell Communication and Signaling : CCS, 2015)", "assay_in_all_cases": "co-IP; Flag-tagged CTR-CNGA1 (wild type or mutant) and Myc-tagged RA domains co-expressed in HEK-293T cells; reciprocal immunoprecipitation with anti-Flag or anti-Myc antibodies (IgG as control), immunoblot, densitometry", "conditions_in_all_cases": "partners not purified", "key": {"CTR-CNGA1 (D577,578 N)": {"target": "T1, CTR-CNGA1 (D577,578 N) (UniProt Q00194 483-690, D577,578 N | D577,578 N)", "T1 construct": "CNGA1 C-terminal region, residues 483-690, with D577N and D578N; Mutant of m1 made by site-directed mutagenesis; source: HEK-293T, transfected (pCDNA3), in lysate; not shown: FLAG, N-terminal, kept", "T1 sequence (looked up)": "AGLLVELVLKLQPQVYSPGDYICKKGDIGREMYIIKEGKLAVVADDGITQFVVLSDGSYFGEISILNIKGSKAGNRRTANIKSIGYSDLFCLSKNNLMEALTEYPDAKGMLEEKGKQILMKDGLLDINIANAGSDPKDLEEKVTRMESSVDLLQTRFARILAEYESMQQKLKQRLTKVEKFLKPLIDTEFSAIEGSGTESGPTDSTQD"}, "CTR-CNGA1 (D577N)": {"target": "T2, CTR-CNGA1 (D577N) (UniProt Q00194 483-690, D577N)", "T2 construct": "CNGA1 C-terminal region, residues 483-690, with D577N; Mutant of m1 made by site-directed mutagenesis; source: HEK-293T, transfected (pCDNA3), in lysate; not shown: FLAG, N-terminal, kept", "T2 sequence (looked up)": "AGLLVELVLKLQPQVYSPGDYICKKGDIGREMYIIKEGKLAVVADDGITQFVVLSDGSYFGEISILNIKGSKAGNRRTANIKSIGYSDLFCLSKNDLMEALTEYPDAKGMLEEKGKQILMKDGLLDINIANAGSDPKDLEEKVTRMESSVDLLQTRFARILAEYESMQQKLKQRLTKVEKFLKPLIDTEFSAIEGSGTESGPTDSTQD"}, "CTR-CNGA1 (E581Q)": {"target": "T3, CTR-CNGA1 (E581Q) (UniProt Q00194 483-690, E581Q)", "T3 construct": "CNGA1 C-terminal region, residues 483-690, with E581Q; Mutant of m1 made by site-directed mutagenesis; source: HEK-293T, transfected (pCDNA3), in lysate; not shown: FLAG, N-terminal, kept", "T3 sequence (looked up)": "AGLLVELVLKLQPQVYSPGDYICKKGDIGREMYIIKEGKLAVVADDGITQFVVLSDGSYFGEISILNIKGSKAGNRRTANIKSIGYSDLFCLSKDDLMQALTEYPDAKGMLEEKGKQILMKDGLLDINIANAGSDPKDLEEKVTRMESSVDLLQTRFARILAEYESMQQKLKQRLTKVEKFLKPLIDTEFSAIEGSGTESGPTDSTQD"}}}
{"binder": "Myc-tagged RA domain of PI3Kγ (residues 141-311) (domain or fragment, UniProt P48736 141-311, looked up, also called RA-PI3Kγ; PI3Kγ-RA; source: HEK-293T, transfected (pCDNA3), in lysate) HPPSEESQAFQRQLTALIGYDVTDVSNVHDDELEFTRRGLVTPRMAEVASRDPKLYAMHPWVTSKPLPEYLWKKIANNCIFIVIHRSTTSQTIKVSPDDTPGAILQSFFTKMAKKKSLMDIPESQSEQDFVLRVCGRDEYLVGETPIKNFQWVRHCLKNGEEIHVVLDTPP", "values": [{"measurement": "percent disruption of the interaction against wild type", "setting": "CTR-CNGA1 (D577,578 N)", "result": 45, "unit": "percent"}, {"measurement": "percent disruption of the interaction against wild type", "setting": "CTR-CNGA1 (D577N)", "result": 30, "unit": "percent"}, {"measurement": "percent disruption of the interaction against wild type", "setting": "CTR-CNGA1 (E581Q)", "result": 50, "unit": "percent"}]}
